# Data taken from IntAct's records for PubMed 26471729.
# B1: Antiviral innate immune response receptor RIG-I (Homo sapiens), O95786 (parent)
# chain: MTTEQRRSLQAFQDYIRKTLDPTYILSYMAPWFREEEVQYIQAEKNNKGPMEAATLFLKFLLELQEEGWFRGFLDALDHAGYSGLYEAIESWDFKKIEKLEEYRLLLKRLQPEFKTRIIPTDIISDLSECLINQECEEILQICSTKGMMAGAEKLVECLLRSDKENWPKTLKLALEKERNKFSELWIVEKGIKDVETEDLEDKMETSDIQIFYQEDPECQNLSENSCPPSEVSDTNLYSPFKPRNYQLELALPAMKGKNTIICAPTGCGKTFVSLLICEHHLKKFPQGQKGKVVFFANQIPVYEQQKSVFSKYFERHGYRVTGISGATAENVPVEQIVENNDIIILTPQILVNNLKKGTIPSLSIFTLMIFDECHNTSKQHPYNMIMFNYLDQKLGGSSGPLPQVIGLTASVGVGDAKNTDEALDYICKLCASLDASVIATVKHNLEELEQVVYKPQKFFRKVESRISDKFKYIIAQLMRDTESLAKRICKDLENLSQIQNREFGTQKYEQWIVTVQKACMVFQMPDKDEESRICKALFLYTSHLRKYNDALIISEHARMKDALDYLKDFFSNVRAAGFDEIEQDLTQRFEEKLQELESVSRDPSNENPKLEDLCFILQEEYHLNPETITILFVKTRALVDALKNWIEGNPKLSFLKPGILTGRGKTNQNTGMTLPAQKCILDAFKASGDHNILIATSVADEGIDIAQCNLVILYEYVGNVIKMIQTRGRGRARGSKCFLLTSNAGVIEKEQINMYKEKMMNDSILRLQTWDEAVFREKILHIQTHEKFIRDSQEKPKPVPDKENKKLLCRKCKALACYTADVRVIEECHYTVLGDAFKECFVSRPHPKPKQFSSFEKRAKIFCARQNCSHDWGIHVKYKTFEIPVIKIESFVVEDIATGVQTLYSKWKDFHFEKIPFDPAEMSK
# partner: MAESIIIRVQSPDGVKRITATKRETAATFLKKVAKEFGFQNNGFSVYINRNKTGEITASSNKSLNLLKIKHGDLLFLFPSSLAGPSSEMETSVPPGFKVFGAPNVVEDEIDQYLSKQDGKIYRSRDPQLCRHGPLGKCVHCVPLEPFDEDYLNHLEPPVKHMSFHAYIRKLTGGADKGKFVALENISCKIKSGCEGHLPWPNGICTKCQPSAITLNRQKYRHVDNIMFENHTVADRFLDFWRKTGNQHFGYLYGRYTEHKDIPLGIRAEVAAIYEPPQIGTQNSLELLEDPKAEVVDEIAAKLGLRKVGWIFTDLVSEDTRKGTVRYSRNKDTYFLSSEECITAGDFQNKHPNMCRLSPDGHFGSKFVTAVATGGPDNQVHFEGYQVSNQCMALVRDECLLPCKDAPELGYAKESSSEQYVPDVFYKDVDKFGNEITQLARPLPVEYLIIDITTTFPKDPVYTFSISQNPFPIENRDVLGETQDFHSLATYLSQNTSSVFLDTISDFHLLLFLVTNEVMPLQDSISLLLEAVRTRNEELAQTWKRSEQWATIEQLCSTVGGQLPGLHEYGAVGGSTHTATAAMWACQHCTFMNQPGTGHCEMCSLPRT
# Variants of: B1
# Details: with npl4_human NPLOC4, Q8TAT6
row,Variant,effect of a mutation on the interaction
1,T170E;K172R,decreasing interaction strength
2,K172R,decreasing interaction strength
3,K181R,with no effect
